# Test results: US20060073146A1 (Genentech, published 2006)
# Ends that are not written are not given here.
# T1: DcR3-IgG (IgG1-Fc fusion of the ECD of DcR3) (human, UniProt O95407 30-300, limits assumed)
# T1 construct: extracellular domain; Control immunoadhesin; not shown: IgG1 Fc
# T1 sequence (looked up): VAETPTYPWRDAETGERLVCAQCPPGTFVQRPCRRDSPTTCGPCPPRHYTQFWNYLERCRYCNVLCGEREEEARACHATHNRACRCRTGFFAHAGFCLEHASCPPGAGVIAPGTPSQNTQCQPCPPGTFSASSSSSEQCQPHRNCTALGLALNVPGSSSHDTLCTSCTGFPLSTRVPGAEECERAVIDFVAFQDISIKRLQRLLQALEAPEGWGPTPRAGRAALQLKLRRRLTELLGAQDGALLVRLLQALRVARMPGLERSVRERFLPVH
# T2: TACI (the 265 amino acid form of human TACI, hTACI (265)), expressed on transfected cells (human, UniProt O14836 1-258)
# T2 sequence: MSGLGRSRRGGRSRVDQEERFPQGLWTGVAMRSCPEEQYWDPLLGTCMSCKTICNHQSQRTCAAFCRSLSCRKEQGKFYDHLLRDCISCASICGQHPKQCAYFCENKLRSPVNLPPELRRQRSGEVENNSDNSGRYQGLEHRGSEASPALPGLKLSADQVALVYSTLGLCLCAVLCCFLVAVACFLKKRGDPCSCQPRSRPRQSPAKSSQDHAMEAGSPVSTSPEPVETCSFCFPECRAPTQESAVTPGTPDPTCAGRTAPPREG
# B1: BCMA, expressed on transfected cells (receptor)
# chain: MLQMAGQCSQNEYFDSLLHACIPCQLRCSSNTPPLTCQRYCNASVTNSVKGTNAILWTCLGLSLIISLAVFVLMFLLRKISSEPLKDEFKNTGSGLLGMANIDLEKSRTGDEIILPRGLEYTVEECTCEDCIKSKPKVDSDHCFPLPAMEEGATILVTTKTNDYCKSLPAALSATEIEKSISAR
# B2: Flag-AP-APRIL (ligand)
# chain: AVLTQKQKKQHSVLHLVPINATSKDDSDVTEVMWQPALRRGRGLQAQGYGVRIQDAGVYLLYSQVLFQDVTFTMGQVVSREGQGRQETLFRCIRSMPSHPDRAYNSCYSAGVFHLHQGDILSVIIPRARAKLNLSPHGTFLGFVKL
# notes: APRIL fused C-terminally to AP, AP fused C-terminally to Flag; not shown: Flag tag of the pCMV-1 Flag vector; human placental alkaline phosphatase
# B3: Flag-APRIL (ligand, not shown: small tags and cut ends)
# chain: AVLTQKQKKQHSVLHLVPINATSKDDSDVTEVMWQPALRRGRGLQAQGYGVRIQDAGVYLLYSQVLFQDVTFTMGQVVSREGQGRQETLFRCIRSMPSHPDRAYNSCYSAGVFHLHQGDILSVIIPRARAKLNLSPHGTFLGFVKL
# notes: also called Flag-tagged APRIL fusion protein
# B4: TACI-ECD.hFc immunoadhesin (amino acids 2-166 of human TACI fused to human IgG1 Fc) (Fc fusion, not shown: a dimerising Fc or GST)
# chain: SGLGRSRRGGRSRVDQEERFPQGLWTGVAMRSCPEEQYWDPLLGTCMSCKTICNHQSQRTCAAFCRSLSCRKEQGKFYDHLLRDCISCASICGQHPKQCAYFCENKLRSPVNLPPELRRQRSGEVENNSDNSGRYQGLEHRGSEASPALPGLKLSADQVALVYST
# notes: also called TACI-IgG; TACI-Fc
# B5: BCMA-ECD immunoadhesin (amino acids 5-51 of human BCMA fused to human IgG1 Fc) (Fc fusion, not shown: a dimerising Fc or GST)
# chain: AGQCSQNEYFDSLLHACIPCQLRCSSNTPPLTCQRYCNASVTNSVKG
# modifications: not fully specified (C-terminus); cysteine pairing not given here; also: C-terminal fusion to human IgG1 Fc (limits not given here)
# notes: also called BCMA-IgG; BCMA-Fc
# B6: Flag-LIGHT (ligand, UniProt O43557 82-240, looked up, not shown: small tags and cut ends)
# chain: QLIQERRSHEVNPAAHLTGANSSLTGSGGPLLWETQLGLAFLRGLSYHDGALVVTKAGYYYIYSKVQLGGVGCPLGLASTITHGLYKRTPRYPEELELLVSQQSPCGRATSSSRVWWDSSFLGGVVHLEAGEKVVVRVLDERLVRLRDGTRSYFGAFMV
# notes: range 82-240; Control ligand; purified on M2 anti-Flag resin; also called Flag-tagged form of LIGHT
# B7: AP-EDA (comprising amino acids 241-391 of EDA) (ligand, UniProt Q92838 241-391, looked up)
# chain: AGTRENQPAVVHLQGQGSAIQVKNDLSGGVLNDWSRITMNPKVFKLHPRSGELEVLVDGTYFIYSQVEVYYINFTDFASYEVVVDEKPFLQCTRSIETGKTNYNTCYTAGVCLLKARQKIAVKMVHADISINMSKHTTFFGAIRLGEAPAS
# notes: range 241-391; Used as conditioned medium; not shown: human placenta alkaline phosphatase (AP)
# Legend:
# Flag-APRIL [1] = target: B3; assay: ELISA: Flag-APRIL plus control IgG on BCMA-IgG captured by anti-human Fc; bound Flag-APRIL detected with biotinylated anti-Flag
# Flag-APRIL [2] = target: B3; assay: ELISA: Flag-APRIL plus control IgG on TACI-IgG captured by anti-human Fc; bound Flag-APRIL detected with biotinylated anti-Flag
# [3] = target: T3, Flag-AP-TALL-1 (Example 2 construct, TALL-1 amino acids 135-285) (human, UniProt Q9Y275 135-285); assay: conditioned medium on receptor-transfected COS 7 cells, in situ AP staining
# T3 construct: not shown: Flag tag of the pCMV-1 Flag vector; human placental alkaline phosphatase
# T3 sequence (Q9Y275 135-285): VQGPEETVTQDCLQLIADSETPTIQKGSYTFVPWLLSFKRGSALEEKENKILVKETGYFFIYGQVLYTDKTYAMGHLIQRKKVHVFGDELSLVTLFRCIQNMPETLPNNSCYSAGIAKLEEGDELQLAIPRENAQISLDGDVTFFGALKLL
# Flag-AP-APRIL = target: B2; assay: as above
# [4] = target: T1, DcR3-IgG (IgG1-Fc fusion of the ECD of …); assay: co-immunoprecipitation (protein A or anti-Flag M2 agarose) and Western blot
# Protocol: (§1) One μg of the purified human or Flag-LIGHT (control), Flag-APRIL, or Flag-TALL-1, or Flag-AP-APRIL, or Flag-AP-TALL-1 was incubated with 1 μg of purified human immunoadhesin containing the IgG1-Fc fusion of the ECD of DcR3 (control; Pitti et al., Nature, 396:699-703 (1998)) or TACI or BCMA overnight at 4° C. in duplicate. The TACI-ECD.hFc immunoadhesins were prepared by methods described in Ashkenazi et al., Proc. Natl. Acad. Sci., 88:10535-10539 (1991). The immunoadhesin constructs consisted of amino acids 2-166 of the human TACI polypeptide (see FIG. 1). The TACI-ECD constructs were expressed in CHO cells using a heterologous signal sequence (pre-pro trypsin amino acids 1-17 of pCMV-1 Flag (Sigma)) and encoding the human IgG1 Fc region downstream of the TACI sequence, and then purified by protein A affinity chromatography. The BCMA-ECD immunoadhesins were prepared by methods described in Ashkenazi et al., as cited above. The immunoadhesin constructs consisted of amino acids 5-51 of the human BCMA polypeptide (see FIG. 2). The BCMA-ECD constructs were expressed in CHO cells using a heterologous signal sequence (pre-pro trypsin amino acids 1-17 of pCMV-1 Flag (Sigma)) and encoding the human IgG1 Fc region downstream of the BCMA sequence, and then purified by protein A affinity chromatography.
# (§2) One set of reactions (FIG. 8; Panels A-C) was subjected to immunoprecipitation through the receptor-immunoadhesin with protein A-agarose (Repligen). The second set of reactions (FIG. 8; panels D-F) was subjected to immunoprecipitation through the Flag-tagged ligand with Anti-Flag mAb-M2-agarose (Sigma). The immunoprecipitates were then analyzed by Western blot with horseradish peroxidase-conjugated anti-Flag M2 mAb (Sigma) to detect the Flag-tagged ligands (FIGS. 8A-C) or horseradish peroxidase-conjugated goat anti-human IgG pAb (Amersham) to detect the receptor-immunoadhesins (FIGS. 8D-F).
# [5] = target: T2, TACI (the 265 amino acid form of human …); assay: conditioned medium on receptor-transfected COS 7 cells, in situ AP staining
# [6] = target: T4, Human TNF-alpha, membrane form on transfected COS 7 cells (Flag tag inserted between amino acid 70 and 71) (human, UniProt P01375 1-233); assay: Fc fusion on ligand-transfected COS 7 cells, biotinylated anti-human antibody and Cy3-streptavidin staining
# T4 construct: whole, on cells
# T4 sequence (P01375 whole entry, the tested form may be a part): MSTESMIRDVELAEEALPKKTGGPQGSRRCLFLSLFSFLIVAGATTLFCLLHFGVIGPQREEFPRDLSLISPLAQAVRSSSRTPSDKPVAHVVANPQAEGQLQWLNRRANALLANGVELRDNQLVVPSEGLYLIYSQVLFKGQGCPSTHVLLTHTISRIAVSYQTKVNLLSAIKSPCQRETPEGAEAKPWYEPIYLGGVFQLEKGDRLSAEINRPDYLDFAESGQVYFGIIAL
# Protocol: Additional assays were conducted to determine whether TACI could serve as a receptor for other members of the TNF family of ligands. COS 7 cells (ATCC) were transiently transfected (using Lipofectamine reagent) with membrane forms of various ligands of TNF family. Among the ligands tested were APRIL, TALL-1, 4-1 BBL, CD27L, CD30L, CD40L, EDA, FasL, GITRL, LT-alpha, OX-40L, RANKL, TNF-alpha, TNF-beta and Apo2L/TRAIL.
# For the detection of TNF-alpha expression on the cell surface, a Flag tag was inserted between amino acid 70 and amino acid 71 (using the numbering according to the sequence in Pennica et al., supra). An extracellular region of TALL-1 (aa 75-285; see FIG. 3), 4-1BBL (aa 59-254; Goodwin et al., Eur. J. Immunol., 23:2631-2641 (1993)), CD27 ligand (aa 40-193; Goodwin et al., Cell, 73:447-456 (1993)), CD30 ligand (aa 61-234; Smith et al., Cell, 73:1349-1360 (1993)), RANKL (aa 71-317; see WO98/28426), Apo-2 ligand (aa 40-281; see WO97/25428) or Apo-3L (aa 46-249; see WO99/19490) was individually cloned at the BamHI site. […] For APRIL (see FIG. 4) and EDA (Srivastava et al., supra), full length cDNA clones without Flag tag were used.
# Transfected COS 7 cells were subsequently incubated with TACI.ECD.hFC immunoadhesin (prepared as described above). […]
# Flag-LIGHT = target: B6; assay: co-immunoprecipitation (protein A or anti-Flag M2 agarose) and Western blot
# Protocol: as §1, §2
# Flag-APRIL [7] = target: B3; assay: co-immunoprecipitation and Western blot
# Protocol: as §1, with “The immunoadhesin constructs consisted of amino acids 5-51 of the human BCMA polypeptide (see FIG. 2). The BCMA-ECD constructs were expressed in CHO cells using a heterologous signal sequence (pre-pro trypsin amino acids 1-17 of pCMV-1 Flag (Sigma)) and encoding the human IgG1 Fc region downstream of the BCMA sequence, and then purified by protein A affinity chromatography.” left out
# as §2, with “The second set of reactions (FIG. 8; panels D-F) was subjected to immunoprecipitation through the Flag-tagged ligand with Anti-Flag mAb-M2-agarose (Sigma).” left out
# [8] = target: B4; assay: co-immunoprecipitation (protein A or anti-Flag M2 agarose) and Western blot
# Protocol: as §1, §2
# [9] = target: T2, TACI (the 265 amino acid form of human …); assay: conditioned medium on TACI-transfected COS 7 cells, in situ AP staining
# Protocol: In an in vitro assay, COS 7 cells (ATCC) were seeded into 12 well plates 24 hours before transfection. The cells were then transfected with 1 microgram TACI (the 265 amino acid form of human TACI described above, cloned in pRK5B vector, infra) or vector plasmid (pRK5B) alone. 18-24 hours after transfection, the cells were incubated with conditioned medium containing AP-TALL-1; AP-TNF-alpha; or AP-EDA for 1 hour at room temperature and stained for AP activity in situ as described in Tartaglia et al., Cell, 83:1263-1271 (1995).
molecule,measurement,setting,value
IgG Ctrl (antibody),% Max Binding to BCMA,Flag-APRIL [1],100%
same,% Max Binding to TACI,Flag-APRIL [2],100%
B1,binding result,[3],binds
same,binding result,Flag-AP-APRIL,binds
B2,binding result,[4],no binding (tested: 1 µg of each)
same,binding result,[5],binds
B3,binding result,[4],no binding (tested: 1 µg of each)
B4,binding result,[6],no binding (tested: 1 µg/ml)
B5,binding result,Flag-LIGHT,no binding (tested: 1 µg of each)
same,binding result,Flag-APRIL [7],binds
same,binding result,[6],no binding
B6,binding result,[8],no binding (tested: 1 µg of each)
B7,binding result,[9],no binding
